Target: human Toll-like receptor 2 expressed on HEK-Blue hTLR2 cells (human) (UniProt O60603)
Assay: flow cytometry on cells

UniProt O60603, sequence (O60603 21-784): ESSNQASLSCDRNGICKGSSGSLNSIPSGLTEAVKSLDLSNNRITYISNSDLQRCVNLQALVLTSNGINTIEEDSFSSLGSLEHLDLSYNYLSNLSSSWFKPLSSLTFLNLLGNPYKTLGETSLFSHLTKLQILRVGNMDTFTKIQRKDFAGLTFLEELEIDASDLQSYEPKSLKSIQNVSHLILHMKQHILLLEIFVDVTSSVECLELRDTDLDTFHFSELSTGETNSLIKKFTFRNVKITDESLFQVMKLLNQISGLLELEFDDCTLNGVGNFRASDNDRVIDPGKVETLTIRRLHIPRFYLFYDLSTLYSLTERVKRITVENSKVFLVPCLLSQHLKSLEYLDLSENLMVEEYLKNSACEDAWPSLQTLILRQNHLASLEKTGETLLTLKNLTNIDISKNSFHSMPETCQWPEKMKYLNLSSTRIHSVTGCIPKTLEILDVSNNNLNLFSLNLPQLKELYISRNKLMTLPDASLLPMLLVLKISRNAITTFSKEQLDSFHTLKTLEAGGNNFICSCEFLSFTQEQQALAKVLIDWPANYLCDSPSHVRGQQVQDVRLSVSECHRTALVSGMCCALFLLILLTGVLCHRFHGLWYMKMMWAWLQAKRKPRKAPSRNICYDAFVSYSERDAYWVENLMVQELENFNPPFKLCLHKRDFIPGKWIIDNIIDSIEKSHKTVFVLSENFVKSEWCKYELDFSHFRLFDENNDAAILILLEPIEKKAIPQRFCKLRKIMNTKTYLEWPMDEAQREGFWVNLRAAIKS

“fluorescently labelled recombinant ancillary pilin 1 (rAP1 labelled with Red Mega 485) (natural protein)” gave a mean fluorescence intensity of 1490.

From paper PMC9303359
